The target in this data set is T1, AlgR (Pseudomonas aeruginosa PAO1) (UniProt P26275).
T1 sequence: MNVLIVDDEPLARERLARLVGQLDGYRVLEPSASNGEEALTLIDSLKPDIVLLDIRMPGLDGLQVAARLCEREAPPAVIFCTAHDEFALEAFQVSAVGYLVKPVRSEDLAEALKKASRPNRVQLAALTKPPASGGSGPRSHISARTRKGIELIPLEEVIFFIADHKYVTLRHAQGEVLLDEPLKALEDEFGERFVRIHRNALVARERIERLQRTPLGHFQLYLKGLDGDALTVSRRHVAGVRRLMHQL
As to the kind of experiment: EMSA. The conditions noted are these: EMSA: 10 mM Tris-HCl pH 7.4, 50 mM KCl, 5 mM MgCl2, 10% glycerol, 30 min, temperature not stated; 1 ug DIDC (poly dI-dC) with FITC probes in some assays …. (A gel shift assay detects complexes by their altered migration in electrophoresis.)
As to “GTACCTCGTCCGGCTCGGCGTCGGCGGTATAGCCGAGGATCAGGATCGGCGCGCGTCGCTCGCACCGTTCCTGGATGCGTATCCTGCGTGCCAGCTGATAGCCGTTCAGGCGCGGCATGTTGCAGTCGCTGATCAGCACCTCGAAGCGCTCGTCGGCCCAGAGCTCCAGCGCCA (double strand) [rocsS2 CDS fragment]”, the binding entry is on record as “binds”. The result for “CGGGTCTTCGTAGGCGTAGCGGGTGCTGCCGGCCGGGCCGCGCACCGTCGTCGCATTGCCCCGTTCGTCGCGCTCGAAGGTCCAGCGGCGCTGCATCGCGTCCTCCAGCTCGACCAGCAGCCCGGTCTCTTCGTCGACGCGCTTGCGATAGCGCGCCTTGCCCGGCGACTCCTCCTCGAGC (double strand) [tse5 CDS fragment]” reads “binds”; that for “CTGGCGATGGAAGGCACTCCAATCGAGGTCCGCAGGGCCGACCAGCGCGTCCAGCGAGAAATCGTCGAGCAAAGGGCGTCCGGCGGCCGCACGCAGGGTCAACGGCGCCAAAGGACCGCTCAGCGACGGTGCATCGGCTTCACGCACCACCAGGCTGGCCTGGCAGTCGGCAGCGATATCGGCCAGGGCCTGCTCGCGGGACTT (double strand) [pqsA CDS fragment]”, “binds”.

Values taken from article PMC9600179.
